Source: PMC4755762

What was measured:
[1] = biological target: CD11c_(614-682b)-YFP/CD18 chimera on CHO cells (human) (UniProt P11215); assay: flow cytometry on cells; 2x10^5 CHO cells expressing YFP-fused integrins with different concentrations of CyaA-biotin; streptavidin-PE; mean fluorescence intensities against CyaA concentration
[2] = biological target: CR3 chimera with residues 33 to 115 of CD11b replaced by the corresponding segment of CD11c, with CD18, on CHO cells (human) (UniProt P11215); assay: flow cytometry on cells
[3] = biological target: CD11b_(342-424c)/CD18 chimera on CHO cells (human) (UniProt P11215); assay: flow cytometry on cells
[4] = biological target: CR3 chimera with residues 686 to 1152 of CD11b replaced by the corresponding segment of CD11c, with CD18, on CHO cells (human) (UniProt P11215); assay: flow cytometry on cells
[5] = biological target: CD11b_(614-682c)/CD18 chimera on CHO cells (human) (UniProt P11215); assay: flow cytometry on cells

adenylate cyclase toxin-hemolysin (CyaA) of Bordetella pertussis, intact (from UniProt P0DKX7 1-1706) (natural protein)
fold higher CyaA binding than CD11c-YFP/CD18 [1]: 24 fold
fold lower CyaA binding than CD11b-YFP/CD18 [1]: 1.7 fold
CyaA binding, percent of binding to intact CD11b/CD18 [2]: 72%
CyaA binding, percent of binding to intact CD11b/CD18 [3]: 61%
CyaA binding, percent of binding to intact CD11b/CD18 [4]: 89%
fold decrease of CyaA binding against intact CR3 [5]: 10 fold
